Measurements taken from publication PMC11982978 (2025).
Square brackets hold non-standard residues; d marks the D form. Ends that are not written are not given here.

Biological target: Active phosphorylated His6-tagged ERK2 WT (rat (p-0033 says mouse), UniProt P63086 3-358, phosphorylated (active form; sites not given))

[dL][dC][dA][dR][dR]G[dL][dY][dC][dL][dS][dL][dD][dH] (cysteine pairing not given here) [FAAP100 D-peptide]
IC50: 92 µM
